This passage reports protein stability index results from the supplement of paper PMC10567573.

The labels stand for the following.
B1: PRIM1 (parent)
chain: CCSSADICPKCWTLMTMAIRIIDR
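Also: lentivirally expressed fusions sorted by FACS into six bins by GFP to DsRed ratio, PSI derived from sequencing read proportions per bin multiplied by bin number.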

Variants of B1 are the subject of the data set. In words: protein stability index of a GFP-peptide fusion (GPS, HEK-293T) (PSI 1-6); higher = more stable. To be noted: c terminus: a fixed tail appended.
As to CCSSADICPKCWTLMTMAERIIDR [I19E], the protein stability index is 2.48.

As to CCSSADICPKCWTLMTMALRIIDR [I19L], the protein stability index is 2.12.

Regarding CCSSADICPKCWTLMTMADRIIDR [I19D], the protein stability index is 2.92.

CCSSADICPKCWTLMTMAWRIIDR [I19W]: the protein stability index worked out at 1.83.

As for CCSSADICPKCWTLMTMAYRIIDR [I19Y], the protein stability index is 2.05.

Consider CCSSADICPKCWTLMTMASRIIDR [I19S], for which the protein stability index came to 2.6.

As to CCSSADICPKCWTLMTMAHRIIDR [I19H], the protein stability index was found to be 2.8.

As to CCSSADICPKCWTLMTMAIRIIPR [D23P], the protein stability index was 2.42.

As to CCSSADICPKCWTLMTMAIRIIMR [D23M], the protein stability index amounted to 1.64.

Take CCSSADICPKCWTLMTMAIRIINR [D23N]: the protein stability index amounted to 1.47.

Turning to CCSSADICPKCWTLMTMAIRIIIR [D23I], the protein stability index is 1.84.

CCSSADICPKCWTLMTMAIRIIYR [D23Y]: the protein stability index turned out to be 1.61.

With CCSSADICPKCWTLMTMAIRIILR [D23L], the protein stability index amounted to 2.25.

For the variant CCSSADICPKCWTLMTMAIRIIVR [D23V], the protein stability index is 2.31.

Take CCSSADICPKCWTLMTMAIRIIWR [D23W]: the protein stability index stood at 2.15.

Consider CCSSKDICPKCWTLMTMAIRIIDR [A5K], for which the protein stability index amounted to 1.93.

CCSSSDICPKCWTLMTMAIRIIDR [A5S]: the protein stability index worked out at 2.63.

As for CCSSIDICPKCWTLMTMAIRIIDR [A5I], the protein stability index came to 1.33.

Take CCSSTDICPKCWTLMTMAIRIIDR [A5T]: the protein stability index came out at 2.98.

In the case of CCSSGDICPKCWTLMTMAIRIIDR [A5G], the protein stability index came to 1.7.

Turning to CCSSRDICPKCWTLMTMAIRIIDR [A5R], the protein stability index came out at 1.67.

Consider CCSSHDICPKCWTLMTMAIRIIDR [A5H], for which the protein stability index was determined as 1.71.

Turning to CCSSNDICPKCWTLMTMAIRIIDR [A5N], the protein stability index worked out at 1.54.

In the case of CCSSCDICPKCWTLMTMAIRIIDR [A5C], the protein stability index was determined as 2.01.

For CPSSADICPKCWTLMTMAIRIIDR [C2P], the protein stability index stood at 2.21.

Take CYSSADICPKCWTLMTMAIRIIDR [C2Y]: the protein stability index came to 1.96.

Regarding CGSSADICPKCWTLMTMAIRIIDR [C2G], the protein stability index amounted to 1.6.

Turning to CQSSADICPKCWTLMTMAIRIIDR [C2Q], the protein stability index was 1.9.

In the case of CNSSADICPKCWTLMTMAIRIIDR [C2N], the protein stability index is 2.03.

Consider CRSSADICPKCWTLMTMAIRIIDR [C2R], for which the protein stability index amounted to 1.91.

Regarding CDSSADICPKCWTLMTMAIRIIDR [C2D], the protein stability index was 2.41.

On to CISSADICPKCWTLMTMAIRIIDR [C2I], for which the protein stability index is 1.74.

On to CCSSADICPKFWTLMTMAIRIIDR [C11F], for which the protein stability index was found to be 2.58.

For CCSSADICPKAWTLMTMAIRIIDR [C11A], the protein stability index was determined as 4.39.

CCSSADICPKEWTLMTMAIRIIDR [C11E]: the protein stability index was 3.11.

For CCSSADICPKIWTLMTMAIRIIDR [C11I], the protein stability index stood at 2.4.

For CCSSADICPKTWTLMTMAIRIIDR [C11T], the protein stability index came out at 1.76.

For CCSSADICPKDWTLMTMAIRIIDR [C11D], the protein stability index was found to be 3.13.

CCSSADICPKCWWLMTMAIRIIDR [T13W]: the protein stability index stood at 2.31.

Regarding CCSSADICPKCWCLMTMAIRIIDR [T13C], the protein stability index was found to be 2.04.

As for CCSSADICPKCWFLMTMAIRIIDR [T13F], the protein stability index was 1.53.

As for CCSSADICPKCWKLMTMAIRIIDR [T13K], the protein stability index is 2.46.

As for CCSSADICPKCWLLMTMAIRIIDR [T13L], the protein stability index worked out at 1.49.

Regarding CCSSADICPKCWELMTMAIRIIDR [T13E], the protein stability index was 1.88.

With CCSSADICPKCWALMTMAIRIIDR [T13A], the protein stability index was 2.63.

Take CCSSADICPKCWSLMTMAIRIIDR [T13S]: the protein stability index was 1.96.

As to CCSSADICPKCWQLMTMAIRIIDR [T13Q], the protein stability index was 2.18.

Consider CCSSADICPKCWTLMTMAIRIADR [I22A], for which the protein stability index was determined as 2.1.

On to CCSSADICPKCWTLMTMAIRINDR [I22N], for which the protein stability index worked out at 2.52.

As for CCSSADICPKCWTLMTMAIRISDR [I22S], the protein stability index turned out to be 1.6.

With CCSSADICPKCWTLMTMAIRIKDR [I22K], the protein stability index came to 2.94.

For the variant CCSSADICPKCWTLMTMAIRIMDR [I22M], the protein stability index turned out to be 1.8.

In the case of CCSSADICPKCWTLMTMAIRIRDR [I22R], the protein stability index worked out at 2.5.

In the case of CCSSADICPKCWTLMTMAIVIIDR [R20V], the protein stability index stood at 1.96.

Turning to CCSSADICPKCWTLMTMAITIIDR [R20T], the protein stability index was determined as 1.67.

For CCSSADICPKCWTLMTMAIYIIDR [R20Y], the protein stability index worked out at 1.91.

CCSSADICPKCWTLMTMAIIIIDR [R20I]: the protein stability index was found to be 1.33.

Take CCSSADICPKCWTLMTMAIHIIDR [R20H]: the protein stability index turned out to be 2.05.

Turning to CCSSADICPKCWTLMTMAICIIDR [R20C], the protein stability index is 1.96.

For CCSSADICPKCWTLMTMAINIIDR [R20N], the protein stability index is 2.18.

In the case of CCSSADICPKCWTLMTMAIFIIDR [R20F], the protein stability index stood at 1.46.

For the variant CCSSADICCKCWTLMTMAIRIIDR [P9C], the protein stability index stood at 2.43.

On to CCSSADICYKCWTLMTMAIRIIDR [P9Y], for which the protein stability index was found to be 1.55.

For the variant CCSSADICIKCWTLMTMAIRIIDR [P9I], the protein stability index turned out to be 1.78.

CCSSADICAKCWTLMTMAIRIIDR [P9A]: the protein stability index is 1.53.

With CCSSADICNKCWTLMTMAIRIIDR [P9N], the protein stability index came to 1.29.

Take CCSSADICLKCWTLMTMAIRIIDR [P9L]: the protein stability index amounted to 1.77.

Take CCSSADICQKCWTLMTMAIRIIDR [P9Q]: the protein stability index amounted to 1.67.

With CCSSADICDKCWTLMTMAIRIIDR [P9D], the protein stability index came out at 1.64.

In the case of CCYSADICPKCWTLMTMAIRIIDR [S3Y], the protein stability index was 2.43.

Consider CCDSADICPKCWTLMTMAIRIIDR [S3D], for which the protein stability index was determined as 1.56.

Take CCISADICPKCWTLMTMAIRIIDR [S3I]: the protein stability index stood at 1.87.

On to CCWSADICPKCWTLMTMAIRIIDR [S3W], for which the protein stability index was 1.42.

Consider CCQSADICPKCWTLMTMAIRIIDR [S3Q], for which the protein stability index was 2.08.

In the case of CCSSADICPNCWTLMTMAIRIIDR [K10N], the protein stability index stood at 1.81.

CCSSADICPCCWTLMTMAIRIIDR [K10C]: the protein stability index was 2.62.

As for CCSSADICPRCWTLMTMAIRIIDR [K10R], the protein stability index stood at 2.3.

In the case of CCSSADICPKCWTLMDMAIRIIDR [T16D], the protein stability index is 2.07.

On to CCSSADICPKCWTLMNMAIRIIDR [T16N], for which the protein stability index worked out at 2.37.

CCSSADICPKCWTLMEMAIRIIDR [T16E]: the protein stability index was 1.48.

In the case of CCSSADICPKCWTLMLMAIRIIDR [T16L], the protein stability index amounted to 2.

Turning to CCSSADICPKCWTLMQMAIRIIDR [T16Q], the protein stability index amounted to 2.54.

For CCSSADICPKCWTLMMMAIRIIDR [T16M], the protein stability index came to 1.52.

With CCSSAGICPKCWTLMTMAIRIIDR [D6G], the protein stability index stood at 1.47.

For the variant CCSSAAICPKCWTLMTMAIRIIDR [D6A], the protein stability index was 1.7.

As to CCSSAIICPKCWTLMTMAIRIIDR [D6I], the protein stability index came out at 1.91.

With CCSSAPICPKCWTLMTMAIRIIDR [D6P], the protein stability index amounted to 2.13.

As to CCSSAYICPKCWTLMTMAIRIIDR [D6Y], the protein stability index was found to be 1.58.

With CCSSANICPKCWTLMTMAIRIIDR [D6N], the protein stability index turned out to be 1.86.

CCSSARICPKCWTLMTMAIRIIDR [D6R]: the protein stability index came to 1.51.

On to CCSSAHICPKCWTLMTMAIRIIDR [D6H], for which the protein stability index came out at 2.49.

On to CCSSACICPKCWTLMTMAIRIIDR [D6C], for which the protein stability index was 1.62.

CCSSAWICPKCWTLMTMAIRIIDR [D6W]: the protein stability index worked out at 2.91.

As to CCSSADINPKCWTLMTMAIRIIDR [C8N], the protein stability index came out at 2.83.
